Measured values reported in patent US20230212589A1.

Tests used:
[1] = target: Recombinant S1 protein of SARS-CoV-2 (SARS-CoV-2) (UniProt P0DTC2)
[2] = target: Recombinant S1 protein of MERS-CoV (MERS-CoV) (UniProt K9N5Q8)

Substance | sensitivity of the test strip [1] [nM] | sensitivity of the test strip [2] [nM]
ACE2-AVI tag-6×His tag fusion protein, biotinylated and labeled with color latex (L-SB-ACE2) (receptor; other documents disagree on this pair) | 10 | 
6×His tag-AVI tag-DPP4 fusion protein, biotinylated and labeled with color latex (L-SB-DPP4) (receptor; other documents disagree on this pair) |  | 10
